Laboratory results as given in publication doi:10.1101/2020.12.08.416701.

How the values were obtained:
TβRI ectodomain (human) [1] = molecular target: TβRI ectodomain (human) (UniProt P36897); assay: ITC
[2] = molecular target: biotinylated avi-tagged TβRI (human) (UniProt P36897); assay: SPR
TβRI ectodomain (human) [3] = molecular target: TβRI ectodomain (human) (UniProt P36897); assay: SEC-MALS
[4] = molecular target: biotinylated avi-tagged TβRII (human) (UniProt P37173); assay: SPR
TβRII ectodomain (human) = TβRII ectodomain (human) (UniProt P37173); assay: ITC
Chain of TβRII ectodomain (human) (P37173 23-166): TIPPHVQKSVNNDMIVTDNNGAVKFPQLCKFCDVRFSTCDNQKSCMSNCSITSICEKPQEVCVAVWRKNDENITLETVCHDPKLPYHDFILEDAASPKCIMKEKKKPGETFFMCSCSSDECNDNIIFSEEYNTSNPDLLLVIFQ

Chain of biotinylated avi-tagged TβRI (human) (P36897 34-503): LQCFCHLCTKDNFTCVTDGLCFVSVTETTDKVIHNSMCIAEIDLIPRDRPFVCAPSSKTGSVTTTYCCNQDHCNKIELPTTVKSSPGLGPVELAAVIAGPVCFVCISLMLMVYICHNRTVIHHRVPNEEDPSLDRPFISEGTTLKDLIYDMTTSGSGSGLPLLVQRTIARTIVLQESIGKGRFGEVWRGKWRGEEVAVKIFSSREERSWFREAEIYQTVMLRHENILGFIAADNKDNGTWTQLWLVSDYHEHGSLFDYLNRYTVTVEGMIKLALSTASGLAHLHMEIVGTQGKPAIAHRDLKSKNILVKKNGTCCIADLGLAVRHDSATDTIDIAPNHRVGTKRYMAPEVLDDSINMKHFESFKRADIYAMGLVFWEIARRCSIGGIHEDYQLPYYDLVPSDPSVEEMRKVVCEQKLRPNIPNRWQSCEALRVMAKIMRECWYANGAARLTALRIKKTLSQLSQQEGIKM
Chain of TβRI ectodomain (human) (P36897 34-126): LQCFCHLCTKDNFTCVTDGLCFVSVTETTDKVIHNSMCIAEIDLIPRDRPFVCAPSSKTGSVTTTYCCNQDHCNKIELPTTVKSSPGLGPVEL
Chain of TGF-β3:TβRII binary complex (P37173 whole entry, looked up, one chain of several): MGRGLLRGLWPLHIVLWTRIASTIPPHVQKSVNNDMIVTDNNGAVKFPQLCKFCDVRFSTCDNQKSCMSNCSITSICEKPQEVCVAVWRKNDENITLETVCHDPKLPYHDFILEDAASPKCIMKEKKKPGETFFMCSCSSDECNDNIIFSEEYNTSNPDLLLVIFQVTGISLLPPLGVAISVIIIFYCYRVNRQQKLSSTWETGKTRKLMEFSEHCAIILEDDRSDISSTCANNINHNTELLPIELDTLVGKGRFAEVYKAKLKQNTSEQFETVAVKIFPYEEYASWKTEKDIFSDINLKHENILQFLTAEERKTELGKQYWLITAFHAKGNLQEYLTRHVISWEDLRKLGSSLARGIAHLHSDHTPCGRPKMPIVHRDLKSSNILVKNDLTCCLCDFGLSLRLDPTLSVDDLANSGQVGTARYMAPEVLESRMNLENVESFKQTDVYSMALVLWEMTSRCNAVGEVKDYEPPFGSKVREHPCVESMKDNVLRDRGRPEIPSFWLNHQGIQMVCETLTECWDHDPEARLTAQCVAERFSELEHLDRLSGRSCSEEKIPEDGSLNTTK
Chain of biotinylated avi-tagged TβRII (human) (P37173 23-567): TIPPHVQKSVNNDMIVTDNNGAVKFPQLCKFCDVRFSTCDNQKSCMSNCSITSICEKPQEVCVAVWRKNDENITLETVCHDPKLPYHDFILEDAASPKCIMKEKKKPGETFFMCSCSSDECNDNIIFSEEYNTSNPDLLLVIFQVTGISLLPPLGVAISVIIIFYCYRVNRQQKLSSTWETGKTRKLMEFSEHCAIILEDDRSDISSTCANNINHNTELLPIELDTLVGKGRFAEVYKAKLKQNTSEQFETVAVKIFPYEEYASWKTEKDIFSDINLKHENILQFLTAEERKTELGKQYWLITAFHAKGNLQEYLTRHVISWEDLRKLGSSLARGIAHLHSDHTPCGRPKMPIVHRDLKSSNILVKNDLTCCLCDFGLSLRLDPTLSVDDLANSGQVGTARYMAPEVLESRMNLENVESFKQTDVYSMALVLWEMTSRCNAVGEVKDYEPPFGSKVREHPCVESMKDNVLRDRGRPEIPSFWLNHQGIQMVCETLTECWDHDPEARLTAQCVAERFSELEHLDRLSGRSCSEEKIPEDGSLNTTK

Row | Substance | Kd (TβRI ectodomain (human) [1]) | dH (TβRI ectodomain (human) [1]) | Kd [2] | stoichiometry N (TβRI ectodomain (human) [3]) | Kd [4] | Kd (TβRII ectodomain (human)) | dH (TβRII ectodomain (human))
1 | TGM domain 2 (domain or fragment) | 1470 nM | -17.7 kcal/mol | 309 nM | 1 |  |  | 
2 | TGM domain 3 (domain or fragment) |  |  |  |  | 910 nM | 1150 nM | -10.7 kcal/mol

Next, values leading:

Row | Kd (TβRI ectodomain (human) [1]) | dH (TβRI ectodomain (human) [1]) | Kd [2] | stoichiometry N (TβRI ectodomain (human) [3]) | Kd [4] | Kd (TβRII ectodomain (human)) | dH (TβRII ectodomain (human)) | Substance
3 | 61.7 nM | -4.21 kcal/mol |  |  |  |  |  | TGF-β3:TβRII binary complex (from UniProt P37173 23-166)
4 | 25.3 nM | -18.7 kcal/mol | 24100 nM |  |  |  |  | TGM domains 1 and 2 (domain or fragment)
5 | 52.1 nM | -16.7 kcal/mol | 13.1 nM |  | 610 nM | 550 nM | -7.14 kcal/mol | full-length TGM (TGF-β mimic of Heligmosomoides polygyrus) (natural protein)
